Data set [1] addresses T1, SpPot1-DBD (Schizosaccharomyces pombe, UniProt O13988 1-389).
T1 sequence: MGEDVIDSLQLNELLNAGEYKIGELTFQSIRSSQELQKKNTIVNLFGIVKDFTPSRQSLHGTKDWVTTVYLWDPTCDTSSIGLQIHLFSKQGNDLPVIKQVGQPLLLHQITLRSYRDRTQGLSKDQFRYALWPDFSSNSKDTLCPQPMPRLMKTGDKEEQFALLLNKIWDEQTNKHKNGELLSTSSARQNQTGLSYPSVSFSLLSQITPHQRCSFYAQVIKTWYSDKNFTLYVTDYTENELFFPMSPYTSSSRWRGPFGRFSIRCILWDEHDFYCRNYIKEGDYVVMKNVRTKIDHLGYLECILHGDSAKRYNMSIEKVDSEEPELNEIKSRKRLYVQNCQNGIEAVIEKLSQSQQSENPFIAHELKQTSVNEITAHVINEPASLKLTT
Kind of data set: EMSA.

Data set [2] deals with T1, SpPot1-DBD. Kind of data set: EMSA. The source holds these as a separate data set.
Data set [3] addresses T1, SpPot1-DBD. Kind of data set: EMSA. This is another data set of the same source.
Data set [4] concerns the target T1, SpPot1-DBD. Kind of data set: EMSA. The source holds these as a separate data set.
In data set [5] the target is T1, SpPot1-DBD. Kind of data set: EMSA. This is another data set of the same source.
Data set [6] addresses T1, SpPot1-DBD. Kind of data set: EMSA. This is another data set of the same source.
Data set [7] concerns the target T1, SpPot1-DBD. Kind of data set: EMSA. This is another data set of the same source.
For data set [8], the target named is T2, SpPot1 (Schizosaccharomyces pombe, UniProt O13988 1-555).
T2 sequence: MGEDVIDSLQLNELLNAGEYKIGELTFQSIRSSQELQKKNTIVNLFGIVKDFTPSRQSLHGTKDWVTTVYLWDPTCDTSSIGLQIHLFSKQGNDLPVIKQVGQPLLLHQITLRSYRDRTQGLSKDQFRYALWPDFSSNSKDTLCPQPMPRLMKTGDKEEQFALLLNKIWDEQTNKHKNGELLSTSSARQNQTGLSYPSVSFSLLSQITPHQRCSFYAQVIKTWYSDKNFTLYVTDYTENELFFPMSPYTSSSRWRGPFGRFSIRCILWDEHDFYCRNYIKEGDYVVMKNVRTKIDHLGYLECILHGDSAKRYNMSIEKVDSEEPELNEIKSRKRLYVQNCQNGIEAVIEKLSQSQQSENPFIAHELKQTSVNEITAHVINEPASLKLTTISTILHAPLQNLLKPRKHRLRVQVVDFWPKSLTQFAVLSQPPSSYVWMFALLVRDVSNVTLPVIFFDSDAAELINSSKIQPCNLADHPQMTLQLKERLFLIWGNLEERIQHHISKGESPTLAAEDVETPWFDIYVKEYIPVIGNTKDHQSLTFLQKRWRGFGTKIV

The target in data set [9] is T2, SpPot1. Kind of data set: filter binding.
Data set [10] has as its target T2, SpPot1. Kind of data set: filter binding. This is another data set of the same source.
In data set [11] the target is T2, SpPot1. Kind of data set: filter binding. The source holds these as a separate data set.
Data set [12] has as its target T2, SpPot1. Kind of data set: filter binding. This is another data set of the same source.
The data set “native gel or EMSA” concerns the molecule itself. Kind of data set: native gel or EMSA.
The next data set addresses T3, Cdc13 (Saccharomyces cerevisiae, UniProt P32797 1-924).
T3 sequence: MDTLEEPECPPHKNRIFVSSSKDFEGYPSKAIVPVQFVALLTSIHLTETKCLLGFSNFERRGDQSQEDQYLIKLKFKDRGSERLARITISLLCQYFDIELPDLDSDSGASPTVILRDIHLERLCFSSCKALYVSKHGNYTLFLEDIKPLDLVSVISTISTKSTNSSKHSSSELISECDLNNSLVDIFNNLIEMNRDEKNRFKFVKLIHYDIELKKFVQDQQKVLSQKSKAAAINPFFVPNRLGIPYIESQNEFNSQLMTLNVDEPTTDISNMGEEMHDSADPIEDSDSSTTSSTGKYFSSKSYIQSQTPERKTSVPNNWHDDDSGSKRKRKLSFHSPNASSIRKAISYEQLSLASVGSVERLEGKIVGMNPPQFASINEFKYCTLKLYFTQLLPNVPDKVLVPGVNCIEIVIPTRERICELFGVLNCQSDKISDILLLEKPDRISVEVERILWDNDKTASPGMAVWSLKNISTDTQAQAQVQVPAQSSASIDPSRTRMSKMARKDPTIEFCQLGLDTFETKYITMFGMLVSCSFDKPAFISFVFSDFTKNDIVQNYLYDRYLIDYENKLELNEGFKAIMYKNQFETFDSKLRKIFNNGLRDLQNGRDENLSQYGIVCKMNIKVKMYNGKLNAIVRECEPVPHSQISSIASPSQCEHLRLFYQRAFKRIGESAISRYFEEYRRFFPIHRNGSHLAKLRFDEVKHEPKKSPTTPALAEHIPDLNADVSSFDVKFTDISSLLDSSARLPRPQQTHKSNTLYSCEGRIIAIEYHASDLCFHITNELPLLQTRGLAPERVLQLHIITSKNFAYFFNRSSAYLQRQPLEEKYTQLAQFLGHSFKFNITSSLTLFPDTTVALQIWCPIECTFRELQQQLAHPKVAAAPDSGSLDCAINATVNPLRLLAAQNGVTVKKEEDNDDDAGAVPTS
Kind of data set: EMSA.

Like-named read-outs stand apart in the source and are kept apart here.

GGTTA (ssDNA) [d(GGTTA) 5mer]: in the data set with SpPot1-DBD [1], the Kd is approximately 10000 pM.

As to GGTTACGGTTACGGT (ssDNA) [15mer], the Kd was 10.3 pM in the data set with SpPot1-DBD [2]; 4.2 pM in the data set with SpPot1-DBD [3]; 4.9 ± 0.8 pM in the data set with SpPot1-DBD [4]; 1.6 pM with SpPot1-DBD [5]; 1.5 pM with SpPot1-DBD [6]; 5 pM with SpPot1-DBD [7]. This molecule also came in with a Kd in the data set with SpPot1 [8] of 5.2 ± 0.5 pM.

As to GGTTACGGTTAC (ssDNA) [12mer], the Kd with SpPot1 [9] was found to be 130 pM; with SpPot1 [10], 100 pM; with SpPot1 [11], 700 pM; in the data set with SpPot1 [8], 6.7 ± 0.9 pM; with SpPot1 [12], 14 pM.

B1: Saccharomyces cerevisiae Cdc13 (1–924), full-length protein (natural protein, UniProt P32797 1-924, looked up)
chain: T3 sequence
Consider B1, for which the “stoichiometry N” value in the data set “native gel or EMSA” amounted to 2.

In the data set with Cdc13, GTGTGGGTGTG (ssDNA) [Tel11] had a Kd of 13.4 ± 0.8 pM.

The record behind these values is PMC4155600 (Journal of nucleic acids investigation, 2013).
